Patent publication US7479385B2, “Sugar kinases with expanded substrate specificity and their use” (Wisconsin Alumni Research Foundation, priority 2003, dated 2009)

Key:
[1] = molecular target: T1, L. lactis wild-type GalK (Lactococcus lactis subsp. lactis, UniProt Q9R7D7); conditions: in vitro; cited from earlier work
T1 sequence (Q9R7D7 1-399): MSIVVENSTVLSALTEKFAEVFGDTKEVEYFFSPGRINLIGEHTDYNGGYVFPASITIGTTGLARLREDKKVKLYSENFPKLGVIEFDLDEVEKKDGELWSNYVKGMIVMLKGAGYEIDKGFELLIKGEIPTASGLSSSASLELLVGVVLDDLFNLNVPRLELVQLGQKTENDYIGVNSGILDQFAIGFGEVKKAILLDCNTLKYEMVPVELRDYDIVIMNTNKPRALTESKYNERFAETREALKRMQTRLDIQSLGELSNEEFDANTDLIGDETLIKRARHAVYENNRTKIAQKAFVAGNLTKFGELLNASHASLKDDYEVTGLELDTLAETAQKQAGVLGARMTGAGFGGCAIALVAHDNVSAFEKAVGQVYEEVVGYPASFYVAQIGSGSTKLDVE

[2] = molecular target: T2, wild-type E. coli GalK (Escherichia coli, UniProt P0A6T3); format: biochemical
T2 construct: made in house
T2 sequence (P0A6T3 1-382): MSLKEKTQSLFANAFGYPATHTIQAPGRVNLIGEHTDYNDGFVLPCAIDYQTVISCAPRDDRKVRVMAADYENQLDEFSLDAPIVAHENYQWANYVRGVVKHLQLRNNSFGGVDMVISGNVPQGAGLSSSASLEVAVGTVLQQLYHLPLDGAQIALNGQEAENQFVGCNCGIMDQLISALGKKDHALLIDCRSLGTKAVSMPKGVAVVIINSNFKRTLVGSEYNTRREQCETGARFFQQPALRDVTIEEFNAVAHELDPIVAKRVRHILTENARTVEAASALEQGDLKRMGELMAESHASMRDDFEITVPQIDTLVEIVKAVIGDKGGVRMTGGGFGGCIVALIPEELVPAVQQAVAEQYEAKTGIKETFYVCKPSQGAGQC
Excerpt: (§1) Characterization of GalK Mutants. […] The mutant enzymes were purified by using metal affinity chromatography on Ni-NTA Spin Columns (QIAGEN, Valencia, Calif.) and fractions containing homogenous protein were collected, concentrated and quantified using the Bradford protein assay. The DNS assay was used to assess the substrate specificity of the purified GalK mutants as previously described. […] For each sugar, the DNS assay was used to monitor the reaction progress and control assays in the absence of enzyme or sugar were performed in parallel. Standard curves for each sugar were prepared as described. To assess general percent conversion, each reaction contained 15.0 (M enzyme, 8 mM sugar, 14 mM ATP and 3.5 mM MgCl2. The reactions were incubated at 37° C. for 3 hrs after which the reactions were quenched with MeOH, centrifuged (10 min, 12,000 rpm) and then the supernatant (diluted 20-fold) submitted for LC-MS and MS/MS analysis. For monosaccharide kinetic data determination, the sugar concentration was varied over a range of 1-8 mM, under saturating ATP (14 mM). Reaction progress was assessed via the DNS assay, wherein a change in absorbance at 575 nm as a function of time was obtained and the initial velocity determined by the slope of the linear phase in the progress curve. The kinetic data was analyzed using Enzyme Kinetics Module software (SSPS, Inc., Chicago, Ill.) as previously described.
(§2) Characterization of Engineered E. coli GalK Mutants.

[3] = molecular target: T3, E. coli double M173L-Y371H mutant GalK (Escherichia coli, UniProt P0A6T3, M173L/Y371H); assay: Substrate screen / percent conversion of 45 sugars, M173L-Y371H; format: biochemical
T3 construct: His-tag (concluded from Ni-NTA purification and vector pET15b); made in house
Excerpt: as §1, with “The reactions were incubated at 37° C. for 3 hrs after which the reactions were quenched with MeOH, centrifuged (10 min, 12,000 rpm) and then the supernatant (diluted 20-fold) submitted for LC-MS and MS/MS analysis.” left out
as §2

[4] = molecular target: T4, E. coli GalK M173L mutant (Escherichia coli, UniProt P0A6T3, M173L); assay: Substrate screen / percent conversion of 45 sugars, M173L; format: biochemical
T4 construct: His-tag (concluded from Ni-NTA purification and vector pET15b); made in house
Excerpt: as §1, §2

[5] = molecular target: T5, E. coli GalK Y371H mutant (Escherichia coli, UniProt P0A6T3, Y371H); format: biochemical
T5 construct: His-tag (concluded from Ni-NTA purification and vector pET15b); made in house; host or cells: E. coli BL21-Gold (DE3), vector pET15b
Excerpt: as §1, §2

[6] = molecular target: T6, Y371H-M173L GalK (Escherichia coli, UniProt P0A6T3, M173L/Y371H); assay: In vivo conversion of fed unnatural sugars to sugar-1-phosphates in E. coli host overexpressing GalK double mutant; format: cell-based; conditions: sugar fed at 4 mM to E. coli overexpressing Y371H-M173L GalK, 16° C., 16 hr; fluorescence HPLC after labelling with 50
T6 construct: His-tag (concluded: same plasmid pGalKMLYH in pET-15b whose product was purified on Ni-NTA); expressed in transfected cells; host or cells: E. coli host carrying pGalKMLYH (pET-15b), IPTG-induced at 16 °C
Excerpt: FIG. 9. In vivo GalK-catalyzed sugar-1-phosphate production. (a) Experimental overview using 6-azido-6-deoxy-D-galactose (22) as an example: 22 is fed to an E. coli host expressing the M173L-Y371H GalK double mutant and the reactants and products subsequently labeled using a […] with the fluorescent tag 50. (b) HPLC chromatographs of bioconversions: i)22 with Y371H-M173L GalK; ii)46 with Y371H-M173L GalK; iii) 22 with wild-type GalK. MS: 50, calculated for C20H25N3O3S 387.2, found m/z 386.1 [M−H]^−; 51, calculated for C26H37N6O11PS 672.2, found m/z 671.2 [M−H]^−; 52, calculated for C26H36N6O8S 592.2, found m/z 591.2 [M−H]
In Vivo Conversion Analysis. […] The reaction mixture was subsequently centrifuged to remove CuI and the supernatant (diluted 2-fold) directly analyzed by HPLC and LC-MS calculated for C26H37N6O11PS 672.20, found m/z […] 671.20.
To assess the Y371H-M173L GalK-catalyzed in vivo production of unnatural sugar-1-phosphates (FIG. 9a), the unnatural sugars (22 or 46, 4 mM final concentration) were fed to an E. coli host (40 mL culture) which overexpressed the promiscuous GalK. After a designated time, the extracts were analyzed via the specific attachment of a fluorescent tag (50), to both starting material (22 or 46) and desired sugar-1-phosphate products, using 1,3-dipolar cycloaddition. […]

[7] = molecular target: GalK mutant Y371H (Escherichia coli, UniProt P0A6T3, Y371H); conditions: sugar 1-16 mM, saturating ATP (15 mM)
[8] = tested on: NCC1OC(O)C(O)C(O)C1O; assay: purified protein, by the assay type; conditions: other: sugar 1-16 mM, saturating ATP (15 mM)
[9] = tested on: O=C[C@H](O)C[C@@H](O)[C@H](O)CO; assay: purified protein, by the assay type; conditions: other: sugar 1-16 mM, saturating ATP (15 mM)
[10] = tested on: CC1OC(O)C(O)C(O)C1O; assay: purified protein, by the assay type; conditions: other: sugar 1-16 mM, saturating ATP (15 mM)
[11] = tested on: OCC1OC(O)CC(O)C1O; assay: purified protein, by the assay type; conditions: other: sugar 1-16 mM, saturating ATP (15 mM)
[12] = tested on: O=C(O)C1OC(O)C(O)C(O)C1O; assay: purified protein, by the assay type; conditions: other: sugar 1-16 mM, saturating ATP (15 mM)
[13] = tested on: NC1C(O)OC(CO)C(O)C1O; assay: purified protein, by the assay type; conditions: other: sugar 1-16 mM, saturating ATP (15 mM)
[14] = substrate: NC1C(O)OC(CO)C(O)C1O; assay: Kinetics and substrate specificity of wild-type GalK with sugar substrates (DNS assay), Table 1; format: biochemical, E. coli; conditions: other: sugar 1-16 mM, saturating ATP (15 mM)
[15] = substrate: OCC1OC(O)CC(O)C1O; assay: as above; format: biochemical, E. coli; conditions: other: sugar 1-16 mM, saturating ATP (15 mM)
[16] = substrate: CC1OC(O)C(O)C(O)C1O; assay: as above; format: biochemical, E. coli; conditions: other: sugar 1-16 mM, saturating ATP (15 mM)
[17] = substrate: O=C[C@H](O)C[C@@H](O)[C@H](O)CO; assay: as above; format: biochemical, E. coli; conditions: other: sugar 1-16 mM, saturating ATP (15 mM)

T3 sequence (P0A6T3 whole entry M173L/Y371H): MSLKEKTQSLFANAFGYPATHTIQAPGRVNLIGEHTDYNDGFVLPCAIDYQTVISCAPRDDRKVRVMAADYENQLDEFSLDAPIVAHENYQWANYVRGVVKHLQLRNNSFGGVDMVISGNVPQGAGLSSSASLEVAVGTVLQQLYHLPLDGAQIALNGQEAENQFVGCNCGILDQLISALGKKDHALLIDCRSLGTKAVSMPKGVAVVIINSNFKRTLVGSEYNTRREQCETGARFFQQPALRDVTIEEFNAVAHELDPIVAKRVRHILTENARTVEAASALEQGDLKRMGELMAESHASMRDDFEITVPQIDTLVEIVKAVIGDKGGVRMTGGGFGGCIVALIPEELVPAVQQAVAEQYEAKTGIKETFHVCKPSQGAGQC
GalK mutant Y371H, sequence (P0A6T3 whole entry Y371H): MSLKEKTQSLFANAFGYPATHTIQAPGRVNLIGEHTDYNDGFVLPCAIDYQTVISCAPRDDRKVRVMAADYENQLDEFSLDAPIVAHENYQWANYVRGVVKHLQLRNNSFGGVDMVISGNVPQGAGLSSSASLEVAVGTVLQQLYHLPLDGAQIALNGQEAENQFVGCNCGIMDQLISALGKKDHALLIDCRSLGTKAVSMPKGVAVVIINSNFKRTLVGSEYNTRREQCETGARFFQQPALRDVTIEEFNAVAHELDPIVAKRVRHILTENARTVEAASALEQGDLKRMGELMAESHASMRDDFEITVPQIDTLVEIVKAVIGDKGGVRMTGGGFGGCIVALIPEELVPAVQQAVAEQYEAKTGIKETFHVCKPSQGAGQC
T5 sequence (P0A6T3 whole entry Y371H): as above
T6 sequence (P0A6T3 whole entry M173L/Y371H): as the sequence (P0A6T3 whole entry M173L/Y371H) above
T4 sequence (P0A6T3 whole entry M173L): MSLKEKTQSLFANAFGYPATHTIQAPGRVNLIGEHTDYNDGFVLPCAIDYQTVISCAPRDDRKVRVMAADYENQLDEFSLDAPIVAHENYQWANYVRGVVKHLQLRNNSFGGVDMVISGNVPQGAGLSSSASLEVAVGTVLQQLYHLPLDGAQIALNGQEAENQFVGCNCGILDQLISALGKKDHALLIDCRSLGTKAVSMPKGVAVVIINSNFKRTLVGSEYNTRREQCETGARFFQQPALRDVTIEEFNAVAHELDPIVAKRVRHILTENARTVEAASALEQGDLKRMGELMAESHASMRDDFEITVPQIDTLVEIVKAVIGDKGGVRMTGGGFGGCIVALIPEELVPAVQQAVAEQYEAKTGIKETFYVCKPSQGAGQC

Molecule: [N-]=[N+]=N[C@H]([C@H](O)[C@@H](O)C=O)[C@H](O)CO [4-azido-4-deoxy-D-galactose (21), 4-azido-4-deoxy-D-galactose]
- conversion / activity with L. lactis wild-type GalK (in words) [1]: in vitro conversion
- substrate of wild-type E. coli GalK (in words) [2]: not a substrates
- kinase activity of M173L-Y371H double mutant (in words) [3]: accept

Molecule: O=C[C@H](O)[C@@H](O)C[C@H](O)CO [4-deoxy-D-galactose (25), 4-deoxy-D-galactose]
- conversion / activity with L. lactis wild-type GalK (in words) [1]: in vitro conversion

Molecule: [N-]=[N+]=NC[C@@H](O)[C@H](O)[C@H](O)[C@@H](O)C=O [6-azido-6-deoxy-D-galactose (22), 6-azido-6-deoxy-D-galactose]
- substrate of M173L (in words) [4]: failed
- substrate of Y371H (in words) [5]: failed
- substrate of wild-type E. coli GalK (in words) [2]: not a substrates
- in vivo conversion to sugar-1-phosphate [6]: ~69%
- kinase activity of M173L-Y371H double mutant (in words) [3]: accept
- in vitro yield (conversion) quoted for comparison with in vivo ([3]; in vitro): ~50%
- in vitro conversion by M173L-Y371H ([3]; in vitro, in 2 hrs): > 50%

Molecule: O=C[C@@H](O)[C@H](O)[C@@H](O)[C@@H](O)CO [L-Glc (25), L-glucose]
- Km ([7]; read-out: Km, Y371H): 2.7 mM
- kcat, Y371H [7]: 1.08 s⁻¹

Molecule: GalK mutant Y371H (Escherichia coli K-12; Y371H)
- Km [8]: 21.3 mM
- kcat [8]: 2.48 s⁻¹
- kcat/Km [8]: 117 M⁻¹ s⁻¹
- Km [9]: 10.1 mM
- kcat [9]: 1.08 s⁻¹
- kcat/Km [9]: 107 M⁻¹ s⁻¹
- Km [10]: 8.0 mM
- kcat [10]: 1.68 s⁻¹
- kcat/Km [10]: 210 M⁻¹ s⁻¹
- Km [11]: 4.7 mM
- kcat [11]: 3.33 s⁻¹
- kcat/Km [11]: 710 M⁻¹ s⁻¹
- Km [12]: 3.2 mM
- kcat [12]: 0.967 s⁻¹
- kcat/Km [12]: 302 M⁻¹ s⁻¹
- Km [13]: 8.8 mM
- kcat [13]: 4.33 s⁻¹
- kcat/Km [13]: 492 M⁻¹ s⁻¹

B1: wild-type E. coli GalK (Escherichia coli K-12) (protein)
chain: MSLKEKTQSLFANAFGYPATHTIQAPGRVNLIGEHTDYNDGFVLPCAIDYQTVISCAPRDDRKVRVMAADYENQLDEFSLDAPIVAHENYQWANYVRGVVKHLQLRNNSFGGVDMVISGNVPQGAGLSSSASLEVAVGTVLQQLYHLPLDGAQIALNGQEAENQFVGCNCGIMDQLISALGKKDHALLIDCRSLGTKAVSMPKGVAVVIINSNFKRTLVGSEYNTRREQCETGARFFQQPALRDVTIEEFNAVAHELDPIVAKRVRHILTENARTVEAASALEQGDLKRMGELMAESHASMRDDFEITVPQIDTLVEIVKAVIGDKGGVRMTGGGFGGCIVALIPEELVPAVQQAVAEQYEAKTGIKETFYVCKPSQGAGQC
notes: made in house
- Km [14]: 2.9 mM
- kcat [14]: 0.195 s⁻¹
- kcat/Km [14]: 66.7 M⁻¹ s⁻¹
- Km [15]: 3.6 mM
- kcat [15]: 0.5 s⁻¹
- kcat/Km [15]: 138 M⁻¹ s⁻¹
- Km [16]: 4.9 mM
- kcat [16]: 0.0483 s⁻¹
- kcat/Km [16]: 9.83 M⁻¹ s⁻¹
- Km [17]: 6.4 mM
- kcat [17]: 0.085 s⁻¹
- kcat/Km [17]: 13 M⁻¹ s⁻¹
